Experimental data taken from patent publication US20140100172A1.
pIC50: −log10 of the molar value.

Experiments:
[1] = target: human chemokine receptor type 4 (CXCR4) (human) (UniProt P61073); experiment: radioligand competition binding; Jurkat cells
[2] = target: human chemokine receptor type 4 (CXCR4) (human) (UniProt P61073); experiment: radioligand competition binding; CMS5/CXCR4 cells
[3] = target: human chemokine receptor type 4 (CXCR4) (human) (UniProt P61073); experiment: competition with 125I-CPCR4 tracer on CXCR4-expressing cells
[4] = target: human chemokine receptor type 4 (CXCR4) (human) (UniProt P61073); experiment: radioligand competition binding; tracer 125I-CPCR4
[5] = target: human chemokine receptor type 4 (CXCR4) (human) (UniProt P61073); experiment: radioligand competition binding; tracer 125I-SDF-1α
[6] = target: human chemokine receptor type 4 (CXCR4) (human) (UniProt P61073); experiment: radioligand competition binding; tracer 125I-CPCR4; Jurkat; parameters: unit not given here
[7] = target: human chemokine receptor type 4 (CXCR4) (human) (UniProt P61073); experiment: radioligand competition binding; tracer 125I-CPCR4; CMS5/CXCR4; parameters: unit not given here
[8] = target: human chemokine receptor type 4 (CXCR4) (human) (UniProt P61073); experiment: radioligand competition binding; tracer 125I-SDF-1α; CMS5/CXCR4; site (1); parameters: unit not given here
[9] = target: human chemokine receptor type 4 (CXCR4) (human) (UniProt P61073); experiment: radioligand competition binding; tracer 125I-SDF-1α; CMS5/CXCR4; site (2); parameters: unit not given here
[10] = target: human chemokine receptor type 4 (CXCR4) (human) (UniProt P61073); experiment: radioligand competition binding; tracer 125I-CPCR4; Jurkat; site (1); parameters: unit not given here
[11] = target: human chemokine receptor type 4 (CXCR4) (human) (UniProt P61073); experiment: radioligand competition binding; tracer 125I-CPCR4; Jurkat; site (2); parameters: unit not given here
[12] = target: human chemokine receptor type 4 (CXCR4) (human) (UniProt P61073); experiment: radioligand competition binding; tracer 125I-CPCR4; CMS5/CXCR4; site (1); parameters: unit not given here
[13] = target: human chemokine receptor type 4 (CXCR4) (human) (UniProt P61073); experiment: radioligand competition binding; tracer 125I-CPCR4; CMS5/CXCR4; site (2); parameters: unit not given here

human chemokine receptor type 4 (CXCR4) (human), sequence (P61073 whole entry): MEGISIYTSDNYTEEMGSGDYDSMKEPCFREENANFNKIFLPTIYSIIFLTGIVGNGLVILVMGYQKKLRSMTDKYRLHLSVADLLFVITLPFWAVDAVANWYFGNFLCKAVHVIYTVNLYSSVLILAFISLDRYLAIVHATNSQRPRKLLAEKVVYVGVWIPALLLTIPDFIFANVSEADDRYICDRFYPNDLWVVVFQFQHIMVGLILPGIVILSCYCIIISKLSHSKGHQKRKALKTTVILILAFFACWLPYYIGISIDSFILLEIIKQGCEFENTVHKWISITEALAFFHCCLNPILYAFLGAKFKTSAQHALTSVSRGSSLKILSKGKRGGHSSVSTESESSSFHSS

Substance: 125I-CPCR4
- pIC50 [1]: 8.40
- pIC50 [2]: 8.19

Substance: cyc[D-Tyr-Orn(Bz, FB)-Arg-Nal-Gly] (peptide)
- pIC50 [3]: 7.00

Substance: cyc[D-Tyr-(Me)D-Orn(Me, FB)-Arg-Nal-Gly] (peptide)
- pIC50 [3]: 7.23

Substance: cyc[D-Tyr-Orn(FB)-Arg-Nal-Gly] (peptide)
- pIC50 [3]: 7.96

Substance: cyc[D-Tyr-D-Orn(FB)-Arg-Nal-Gly] (peptide)
- pIC50 [3]: 7.07

Substance: CPCR4, cyclo[D-Tyr-Arg-Arg-Nal-Gly]
- pIC50 [4]: 8.42
- pIC50 [5]: 8.26
- IC50 [6]: 3.7 ?
- IC50 [7]: 6.8 ?
- IC50 [8]: 0.01 ?
- IC50 [9]: 6.9 ?

Substance: cyc[Nal-Gly-D-Tyr-Orn-Arg] (peptide)
- pIC50 [3]: 8.05

Substance: cyc[D-Tyr-Orn(Ahx)-Arg-Nal-Gly] (peptide)
- pIC50 [3]: 7.15

Substance: Iodo-CPCR4
- IC50 [10]: 0.01 ?
- IC50 [11]: 4.6 ?
- IC50 [12]: 0.01 ?
- IC50 [13]: 3.5 ?
- IC50 [8]: 0.02 ?
- IC50 [9]: 8.8 ?

Substance: cyc[Nal-Gly-D-Tyr-Arg-Orn] (peptide)
- pIC50 [3]: 6.00
